B1: POU domain, class 3, transcription factor 2, residues 356 to 411; numbered along this chain, P20265 (parent)
chain: KKRTSIEVSVKGALESHFLKCPKPSAQEITSLADSLQLEKEVVRVWFCNRRQKEKR

Variants of: B1
Assay: abundance fitness (aPCA) (normalised: wild type 0, dead -1); higher = more abundant; growth selection in yeast, the domain comes from the species named
Conditions: Homo sapiens

Abundance fitness of substitutions, site by site:
W46: K -0.845, H -0.927, D -0.318, R -0.805, N -0.896, C -0.826
A26: W -0.11, L -0.179, Q 0.01, K -0.162, D 0.151, E -0.064
P22: L -0.919, T -0.313, A -0.044, V -0.713
V10: G -0.318, W -0.19, C -0.294, M -0.134
A33: K -0.631, N -0.963, P -0.794, I -1.03, C -0.428, Q -1.12
S35: L -0.065, Q 0.008, Y -0.115, D 0.091, H -0.026, C -0.133, T 0.026, N -0.125, V -0.119, R 0.051, P -0.961, W -0.113
K11: E 0.038, R -0.126, A -0.094
Q37: K -0.064, F -0.183, M -0.151, T -0.316
L14: F -0.814, R -0.855, K -0.933, V -0.641, N -0.632, S -0.923, A -1.04, Q -0.848, E -0.794
L38: Q -0.519, T -0.26, F -0.788, S -0.924, N -0.964
L36: C -0.428, A -0.929, I -0.7, G -0.866, M -0.564, D -0.842, Y -0.151, V -0.53, T -0.7, W -0.545
C21: L -0.651, A -0.304, R -0.419, V -0.421, M -0.354, E -0.072, N -0.168, W -0.437
K53: D -0.234, T 0.024, G -0.112, V -0.517
E28: S -0.455, L -0.369, C -0.299, R -0.466, W -0.505, K -0.413, V -0.195
V45: W -0.038, M -0.101, Y -0.152, D 0.07
V8: R 0.049, S 0.096, G 0.091, T 0.011, L 0.007, I 0.051, A 0.202, C -0.327
F18: I -1.1, G -0.976, T -1.2
R56: L 0.131, Q -0.119, S -0.194, E -0.031, W -0.234, N 0.008, Y -0.413
G12: F -0.085, Q -0.053, K -0.056, T 0.21, Y -0.058, I 0.193, S 0.097, D -0.027, P -0.152
R51: D -0.381, P -0.831, F -0.354, V -0.245, A -0.136, I -0.397, W -0.1, L 0.061
T4: F 0.126, K -0.267, E 0.17, D 0.023, G -0.198, V -0.095, Q -0.107, M -0.015
Q27: E -0.155, I -0.14, H 0.092, D -0.08, V -0.061, S -0.079, W -0.292, R -0.007, M -0.35, F -0.327
S5: R -0.105, L 0.002, D -0.174, C 0.033, Y -0.183
R3: Y 0.026, N 0.13, V 0.051, T -0.009, A -0.168
R50: Q -0.161, P -0.982
S16: Q 0.073, R -0.055, E -0.015, Y -0.382, W -0.399, P -0.539
K40: C -0.153, W -0.178, E 0.096, M -0.013, D -0.344, H 0.132
I6: L 0.045, C -0.172, G -0.119, R -0.117, S -0.053, W -0.289
N49: I -0.249, S -0.137, Q -0.005, V -0.103
K55: Y -0.019, E 0.093, T -0.029, W -0.187, V -0.116, C -0.33, H -0.274
E15: K -0.83, Q -0.527, P -1.04, I -0.649, T -0.788, M -0.649, A -0.88
K1: V -0.072, I -0.397, A -0.237, M -0.244, R -0.302
K23: S 0.024, A -0.135, D 0.093, E 0.072, C 0.023
C48: T -0.105, A -0.096, W -0.007, R -0.217, P -0.948
H17: Y 0.156, E -0.139, R -0.556, D -0.833, P -1.05, C -0.283, N -0.229, G -0.712
K2: Q -0.068, T -0.21, M -0.072, R -0.166, L -0.222
S25: P -0.579, N -0.167, H -0.467, M -0.446, F -0.902
D34: W 0.153, S -0.041, A 0.082, E -0.023
E39: A -0.224, M -0.941, W -0.943, T -0.159
S9: I -0.197, M -0.025, P -0.041, E 0.046, Y -0.267
V43: K -0.909, W -0.793, E -1.01, G -0.906, A -0.615, P -0.891, L -0.361, M -0.944, T -0.841
E41: R -0.337, T -0.303, K -0.446, Y -0.489, A -0.238, W -0.494
R44: I -0.272, Y -0.416, C -0.495, Q -0.057, M -0.214
L19: Y -0.248, M 0.007
T30: I -0.237, D 0.05, E 0.022, V -0.016, A -0.041, Y -0.285, N 0.212, F -0.396, Q 0.078, W -0.324
A13: R 0.083, Q 0.011, V 0.042, F -0.019
V42: D 0.051, N -0.309, R -0.363, M -0.299, E 0.01, Y 0.05, A -0.089, H 0.081, K -0.116
I29: W -0.855, Y -0.741, C -0.633, M -0.093
K20: G -0.466, Y -0.379, A -0.319, T -0.16, P -1.03, R -0.223, V -0.323, S -0.248
Q52: L -0.125, I -0.145, E 0.222, D 0.015, R -0.104, H -0.002
E7: C 0.014, K -0.112, L -0.177, G 0.077, N 0.138, S 0.191, W -0.242, D 0.066, H 0.028, M 0.032, I -0.116
E54: A -0.255, S -0.538, I -0.665, N -0.407
F47: V -0.784, S -0.871, A -0.92, M -0.43, N -0.967, C -0.937
P24: F -0.999, V -0.821, L -0.936
L32: Y -0.831, V -0.303, S -0.875, I -0.161, W -0.915, Q -0.789, E -0.916, T -0.943
